Reference: PMC11573620 (Molecular Therapy, 2024)

Target: T1, human CD155 extracellular domain fused to mouse Fc (human, UniProt P15151 21-343)
T1 sequence (looked up): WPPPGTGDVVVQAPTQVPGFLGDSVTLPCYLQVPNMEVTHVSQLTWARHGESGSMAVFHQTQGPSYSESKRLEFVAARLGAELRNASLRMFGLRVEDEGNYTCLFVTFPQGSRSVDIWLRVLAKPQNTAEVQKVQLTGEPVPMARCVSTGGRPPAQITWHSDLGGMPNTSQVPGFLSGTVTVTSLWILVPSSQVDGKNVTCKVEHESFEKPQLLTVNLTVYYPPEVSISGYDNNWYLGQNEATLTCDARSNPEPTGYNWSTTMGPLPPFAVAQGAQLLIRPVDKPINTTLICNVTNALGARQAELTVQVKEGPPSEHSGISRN
Assay: ELISA

B1: human TIGIT extracellular domain, biotinylated (domain or fragment, UniProt Q495A1 22-141, looked up)
chain: MMTGTIETTGNISAEKGGSIILQCHLSSTTAQVTQVNWEQQDQLLAICNADLGWHISPSFKDRVAPGPGLGLTLQSLTVNDTGEYFCIYHTYPDGTYTGRIFLEVLESSVAEHGARFQIP
modifications: biotin
binding result: binds
